assay: yeast display, Sf9 membrane polyspecificity reagent, FACS + sequencing; frameworks hold sequencing errors
Procedure, shortened: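 Using colony PCR, genes from sorted yeast display clones were amplified, then sequenced on MiSeq at 2 × 250 and filtered by CDR length. The clones had been stained with 10% biotinylated, detergent-solubilized Sf9 membrane reagent for 1 hour at 4 °C and sorted by FACS into low and high (top ~1%) gates on anti-HA and streptavidin fluorescence. Polyreactivity labels come from the gate of origin.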

Sequence	polyreactivity (PSR sort gate)
QVQLLESGGGLVQAGGTLRLSCAASGRTFYVNAMGWYRQAPGKERELVAAIRRGGSPNYADSVKGRFTISRDNEQNTVYLQMNSLKPEDTAVFYCNASPCGRKQYISPYDYRGQGTQVTVSS	low polyreactivity
QVQLVESGGGLVQAGGSLRLSCAASGFIFSYYAMGWYRQAPGKEWELVAAISQNVAGTYYADSVKGRFTISRDNAKNTVYLQMNSLKPEDTAVYYCNARPYSGKYYYWGQGTQVTVSS	high polyreactivity
QVQLVESGGGLVQAGGTLRFSCAASGSILEYYTMGWDRQAPGKERELVAAISASGGNTYYADSVKGRFTISRANAKNTVYFQMNSLKPEDTAVYYCNAYYGPRGYGYWGQGTQVTVSS	high polyreactivity
QVQLVESGGGLVQAGGSLRLSCAASGRIFIYYARGWYRQAPGKERELVAAISGGGGRTYYADSVKGRFTISRDNAKNTVYLQMNSLKPEDTAVYYCAAGVYTGQDEYDYWGQGTQVTVSS	low polyreactivity
QVQLVESGGGLVKAGGSLRLTCAASGRIFVNYAMGWYRQAPGKEMELVAAINWSGGRTYYADSVKGRFTISRDNAKNTVYLQMNSLKPEDTAVYYCAAEWEGTYTTVPDEFNYWGQGTQVTVSS	high polyreactivity
QFQLVESGGGLVQSGGSLRLSCAPTGLIFRPYAMGCYRQAPGKERELVAGINSGGNTDYADSVKGRFTISRDNAKNTVYLQMNSLKPEDTAVYYCNREYQVTIYDYCGQGTQVTVSS	low polyreactivity
QVQLVESGGGLVQAGGSLRLSCAASGSTFEYYAMGWYRQAPGKERELVAAITRSGSRTRYADSVKGRFTISRDNAKNTVYLQMNSLKPEDTAVYYCARLSSARYPFDSWGQGTQVTVSS	high polyreactivity
HVQLVESGGGLVQAGGSLRLSCAASGLTFQYNAMGWYRQAPGKERELVATISQSGGSTYYADSVKGRFTISRDNAKNTVYLQMNSLKPEDTAVYYCAAYRAWTWRIRYDYWGQGTQVTVSS	low polyreactivity
QVQLVESGGGLVQAGGSLRLSCAASGSTFLSYVMGWYRQAPGKERELVAAINRDGGRTYYADSVKGRFTISRDNAKNTVYLQMNSLKPEDTAVYYCATTSQATSGPRRKLYYYWGQGTQVTVSS	high polyreactivity
QVQLVESGGGLVQAGGSLRLSCAASGRIFAGNAMGWYRQAPGKERELVAAISNGGSTYYADSVKGRFTISRDNAKNTVYLQMNSLKPEDTAVYYCNARTRLRKYQYYYWGQGTQVTVSS	high polyreactivity
QVQLVESGGGLVQAGGSLRLSCAASGRIFSLNAMGWYRQAPGKERELVAGIRKRGGSTYYADSVKGRFTISRDNAKNTVYLQMNSLKPEHTAVYYCAAQPALTYRFYYWGQGTQVTVSS	high polyreactivity
QVQLVESGGGLVQAGGSLRLSCAASGFTFDYYAMGWYRQAPGKDRELVAAITSGSITYYADSVKGRFTISRDNAKNTVYLQMNSLKPEDTAVYYCARYGYRRVGSRWAEFDYWGQGTQVTVSS	high polyreactivity
QVQLVESGGGLVQAGGSLRLSCAASGFTFEIYAMGWYSQAPGKVRELVAAISKSGGSTYYADSVKGRFTISRDNAKKRVYLQMNSLKPEDSSVYSCAARYKALYDYWGQGTQVTVSS	high polyreactivity
QVQRVESGGGLVQAGGSLRLSCAASGRIFLIYAMGWYRPAPGKERELVAGISSGGSTYYADSVKGRFTISRDNAKNTVYLQMNSLKPEDTAVYYCAARRYYYRYLFGRYAYGYWGQGTQVNVSS	low polyreactivity
QVQLVESGGGLVQAGGSLRLSCAASGSTFDGYVMGWYRQAPGKEREFVAAISWSGGSTYYADSVKGRFTISRDNAKNTVYLQMNSLKPEDTAVYYCAARVRRQHGYWGQGTQVTVSS	high polyreactivity
QVQLVESGGGLVQSGGSLRLSCAASGRTFRYYAMGWYRQAPGKERELVAAISWNGANTYYADSVKGRFTISRDNAKNTVYLQMNSLKPEDTAVYYCAATYYRWKGYDYWGQGTQVNVSS	high polyreactivity
QVQLEESGGGLVQAGGSLRLSCAASGFILCDYAMGWYRQATGKERELVAGINYRGGSTHYADSVKGRFTISRDIAKNTVYLQMNSLKPEDTAVYYCSKRRQSYPYKTSTWYSHYSWGQGTQVTVSS	high polyreactivity
